# Reference: patent US20230227838A1, “ENHANCED CELL SURVIVAL AGAINST BIOTIC AND ABIOTIC STRESSES THROUGH SALICYLICK ACID-INDUCED NPR1 CONDENSATES” (priority 2020, published 2023)
# Molecular target: sim3-GFP (Arabidopsis thaliana) (UniProt P93002)
# Test: sim3-GFP IP, LC-MS/MS
# sim3-GFP (Arabidopsis thaliana), sequence (P93002 other isoform, or with tags, fused parts or gaps): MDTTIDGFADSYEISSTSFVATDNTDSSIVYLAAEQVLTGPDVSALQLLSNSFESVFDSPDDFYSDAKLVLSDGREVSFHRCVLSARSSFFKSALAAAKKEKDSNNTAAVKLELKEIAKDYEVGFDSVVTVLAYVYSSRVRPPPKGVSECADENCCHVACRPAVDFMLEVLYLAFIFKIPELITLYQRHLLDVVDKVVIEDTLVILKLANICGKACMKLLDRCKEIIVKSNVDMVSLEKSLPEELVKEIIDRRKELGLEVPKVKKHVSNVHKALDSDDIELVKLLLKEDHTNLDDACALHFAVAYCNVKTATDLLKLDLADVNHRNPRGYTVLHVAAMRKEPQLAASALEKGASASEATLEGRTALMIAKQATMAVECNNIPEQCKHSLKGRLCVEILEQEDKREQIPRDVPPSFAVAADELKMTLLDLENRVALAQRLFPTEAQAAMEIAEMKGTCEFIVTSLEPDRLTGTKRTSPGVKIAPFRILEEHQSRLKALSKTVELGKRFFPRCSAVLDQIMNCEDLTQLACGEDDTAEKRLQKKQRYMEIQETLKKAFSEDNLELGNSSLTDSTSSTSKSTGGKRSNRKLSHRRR
row,Binder,Normalized Fold Change: SA vs Mock [fold]
1,"NTF2B, nuclear transport factor 2B (protein, UniProt Q9C7F5 2-126, looked up) Nuclear transport factor 2B: SQMDPDAVSKAFVEHYYSTFDTNRVGLAGLYQEASMLTFEGQKIQGVQSIVAKLTSLPFQQCKHHISTVDCQPSGPASGMLVFVSGNLQLAGEEHALKFSQMFHLMPTPQGSFYVFNDIFRLNYA",11.2
2,"VLN2, villin 2 (protein, UniProt O81644 1-976, looked up) Villin-2: MSTKVLDPAFQGAGQKPGTEIWRIENFEAVPVPKSEHGKFYMGDTYIVLQTTQNKGGAYLFDIHFWIGKDTSQDEAGTAAVKTVELDAVLGGRAVQHREIQGHESDKFLSYFKPCIIPLEGGVASGFKTVEEEVFETRLYTCKGKRAIRLKQVPFARSSLNHDDVFILDTEEKIYQFNGANSNIQERAKALEVVQYLKDKYHEGTCDVAIVDDGKLDTESDSGAFWVLFGGFAPIGRKVANDDDIVPESTPPKLYCITDGKMEPIDGDLSKSMLENTKCYLLDCGAEIYIWVGRVTQVDERKAASQSAEEFLASENRPKATHVTRVIQGYESHSFKSNFDSWPSGSATPGNEEGRGKVAALLKQQGVGLKGIAKSAPVNEDIPPLLESGGKLEVWYVNGKVKTPLPKEDIGKLYSGDCYLVLYTYHSGERKDEYFLSCWFGKKSIPEDQDTAIRLANTMSNSLKGRPVQGRIYEGKEPPQFVALFQPMVVLKGGLSSGYKSSMGESESTDETYTPESIALVQVSGTGVHNNKAVQVETVATSLNSYECFLLQSGTSMFLWHGNQSTHEQLELATKVAEFLKPGITLKHAKEGTESSTFWFALGGKQNFTSKKASSETIRDPHLFSFAFNRGKFQVEEIYNFAQDDLLTEDIYFLDTHAEVFVWVGQCVEPKEKQTVFEIGQKYIDLAGSLEGLHPKVPIYKINEGNEPCFFTTYFSWDATKAIVQGNSFQKKASLLFGTHHVVEDKSNGGNQGLRQRAEALAALNSAFNSSSNRPAYSSQDRLNESHDGPRQRAEALAALSSAFNSSSSSTKSPPPPRPVGTSQASQRAAAVAALSQVLVAENKKSPDTSPTRRSTSSNPADDIPLTEAKDEEEASEVAGLEAKEEEEVSPAADETEAKQETEEQGDSEIQPSGATFTYEQLRAKSENPVTGIDFKRREAYLSEEEFQSVFGIEKEAFNNLPRWKQDLLKKKFDLF",3.54
3,"SAE2, SUMO-activating enzyme 2 (protein, UniProt Q9SJT1 2-700, looked up) SUMO-activating enzyme subunit 2: ATQQQQSAIKGAKVLMVGAGGIGCELLKTLALSGFEDIHIIDMDTIEVSNLNRQFLFRRSHVGQSKAKVARDAVLRFRPNINIRSYHANVKNPEFDVDFFKQFDVVLNGLDNLDARRHVNRLCLAADVPLVESGTTGFLGQVTVHIKGKTECYECQTKPAPKTYPVCTITSTPTKFVHCIVWAKDLLFAKLFGDKNQDNDLNVRSNNSASSSKETEDVFERSEDEDIEQYGRKIYDHVFGSNIEAALSNEETWKNRRRPRPIYSKDVLPESLTQQNGSTQNCSVTDGDLMVSAMPSLGLKNPQELWGLTQNSLVFIEALKLFFAKRKKEIGHLTFDKDDQLAVEFVTAAANIRAESFGIPLHSLFEAKGIAGNIVHAVATTNAIIAGLIVIEAIKVLKKDVDKFRMTYCLEHPSKKLLLMPIEPYEPNPACYVCSETPLVLEINTRKSKLRDLVDKIVKTKLGMNLPLIMHGNSLLYEVGDDLDDIMVANYNANLEKYLSELPSPILNGSILTVEDLQQELSCKINVKHRFFSEILNPVLNSVWFLIILPSTFPKLFHFTESRNQDGLSLDIILGFSNVTIRRVLTMFETGRRLTHPLLILFCHREEFDEEKEPEGMVLSGWTPSPATNGESASTSNNENPVDVTESSSGSEPASKKRRLSETEASNHKKETENVESEDDDIMEVENPMMVSKKKIRVE",5.82
4,"UBP14, ubiquitin-specific protease 14 (protein, UniProt Q8L6Y1 1-797, looked up) Ubiquitin carboxyl-terminal hydrolase 14: MELLRSNLSRVQIPEPTHRIYKHECCISFDTPRSEGGLFVDMNSFLAFGKDYVSWNYEKTGNPVYLHIKQTRKSIPEDRPLKKPTLLAIGVDGGFDNNEPEYEESYSIVILPDFVSLPFPSVELPEKVRIAVDTVVNAVGAERKEQVAAWTAEKKLISEHALTLQQIKSGIVIPPSGWKCSKCDKTENLWLNLTDGMILCGRKNWDGTGGNNHAVEHYKETAYPLAVKLGTITADLEAADVYSYPEDDSVLDPLLAEHLAHFGIDFSSMQKTEMTTAERELDQNTNFDWNRIQESGKELVPVFGPGYTGLVNLGNSCYLAATMQIVFSTHSFISRYFSHQSLKMAFEMAPADPTLDLNMQLTKLGHGLLSGKYSMPATQKDATTGDPRQEGIPPRMFKNVIAASHAEFSSMRQQDALDFFLHLVGKVERASNTTPDLDPSRSFKFGIEEKILCPSGKVGYNKREDCILSLNIPLHEATNKDELEAFHKQKAGKGLEENDMRSSDEIVRPRVPLEACLANFASSEPIEDYYSSALKGMTTAIKTTGLTSFPDYLVLHMRKFVMEEGWVPKKLDVYIDVPDVIDISHMRSKGLQPGEELLPDGVPEEVMESAQPVANEEIVAQLVSMGFSQLHCQKAAINTSNAGVEEAMNWLLSHMDDPDIDAPISHQTSDIDQSSVDTLLSFGFAEDVARKALKASGGDIEKATDWVFNNPNASVSDMDVSSSNSAQTPAQSGLPDGGGKYKLFGIVSHMGTSVHCGHYVAHILKEGRWVIFNDDKVGISTDPPKDMGYVYFFQRLD",5.02
5,"CLIP-associated protein (protein, UniProt Q8RWY6 1-1439, looked up) CLIP-associated protein: MEEALEMARAKDTKERMAAVERLHQLLEASRKSLSPAEVTSLVDSCLDLLKDSNFRVSQGALQALASAAVLAGEHLKLHLNALVPAVVERLGDSKQPVRDAARRLLTTLMEVSSPTIIVERAGSYAWMHKSWRVREEFARTVTSAIGLFASTELPLQRVILAPILQMLNDPNQAVREAAILCIEEMYMQGGSQFREELQRHHLPSYMVKDINARLERIEPQLRSTDGRSAHHVVNEVKASSVNPKKSSPRAKAPTRENSLFGGDADITEKPIEPIKVYSEKELIREFEKIAATLVPEKDWSMRISAMRRVEGLVAGGATDYSCFRGLLKQLVGPLSTQLADRRSTIVKQACHLLCLLSKELLGDFEACAETFIPVLFKLVVITVLVIAESADNCIKTMLRNCKAARVLPRIAESAKHDRNAILRARCCEYALLTLEHWPDAPEIQRSVDLYEDLIRCCVADAMSEVRATARMCYRMFAKTWPDRSRRLFSSFDPVIQRLINEEDGGIHRRHASPSVRERHSQPSFSQTSAPSNLPGYGTSAIVAMDRSSNLSSGGSLSSGLLLSQSKDVNKGSERSLESVLQSSKQKVSAIESMLRGLHISDRQNPAALRSSSLDLGVDPPSSRDPPFHAVAPASNSHTSSAAAESTHSINKGSNRNGGLGLSDIITQIQASKDSGRSSYRGNLLSESHPTFSSLTAKRGSERNERSSLEESNDAREVRRFMAGHFDRQQMDTAYRDLTFRESNASHVPNFQRPLLRKNVGGRMSAGRRRSFDDSQLQIGDISNFVDGPASLNEALNDGLNSSSDWCARVAAFNFLQTLLQQGPKGAQEVIQSFEKVMKLFLRHLDDPHHKVAQAALSTLADLIPSCRKPFESYMERVLPHVFSRLIDPKEVVRQPCSSTLEIVSKTYSVDSLLPALLRSLDEQRSPKAKLAVIEFAINSFNRYAGNPEISGNSGILKLWLAKLTPLTRDKNTKLKEASITCIISVYNHYDSAGLLNYILSLSVEEQNSLRRALKQYTPRIEVDLLNYMQSKKEKQRIKSYDPSDAIGTSSEEGYAGASKKNIFLGRYSGGSIDSDSGRKWSSSQEPTMITGGVGQNVSSGTQEKLYQNVRTGISSASDLLNPKDSDYTFASAGQNSISRTSPNGSSENIEILDDLSPPHLEKNGLNLTSVDSLEGRHENEVSRELDLGHYMLTSIKVNTTPESGPSIPQILHMINGSDGSPSSSKKSGLQQLIEASVANEESVWTKYFNQILTVVLEVLDDEDFSIKELALSLISEMLKSQKDAMEDSVEIVIEKLLHVSKDTVPKVSTEAEQCLTTVLSQYDPFRCLSVIVPLLVTEDEKTLVACINCLTKLVGRLSQEELMDQLSSFLPAVFEAFGSQSADVRKTVVFCLVDIYIMLGKAFLPYLEGLNSTQVRLVTIYANRISQARNGAPIDADT",2550
6,"SINAT2, seven in absentia of Arabidopsis 2 (protein, UniProt Q9M2P4 1-308, looked up) E3 ubiquitin-protein ligase SINAT2: MAPGGSALKEVMESNSTGMDYEVKTAKVEVNNNKPTKPGSAGIGKYGIHSNNGVYELLECPVCTNLMYPPIHQCPNGHTLCSNCKLRVQNTCPTCRYELGNIRCLALEKVAESLEVPCRYQNLGCHDIFPYYSKLKHEQHCRFRPYTCPYAGSECSVTGDIPTLVVHLKDDHKVDMHDGCTFNHRYVKSNPHEVENATWMLTVFNCFGRQFCLHFEAFQLGMAPVYMAFLRFMGDENEAKKFSYSLEVGAHGRKLTWQGIPRSIRDSHRKVRDSQDGLIIPRNLALYFSGGDRQELKLRVTGRIWKEE",2.99
7,"atnudt5, NUDT5, nudix hydrolase homolog 5 (protein, UniProt Q9SJC6 1-302, looked up) Nudix hydrolase 5: MGLTKNFAFLVFCCQRYCSMDGEAFEISLLDGEEDRFGGTVVNLMEVESMTIGDFDSKLDVSLKAWKDQGKKGIWIKLPSELSSLVDTAIKKGFTYHHAENEYVMLTFWLPEPPSTLPCNASHRIGIGAFVLNKNGEMLVVQENSGYFKDKNVWKVPTGTIKEGESIWAGAVREVKEETDIDAEFVEVLSFMESHQAVWQRKTDIFFVCELEARTFEIQKQDSEIHAAKWMPVEEYVNQPYHNKEGNEMFKLIANICLKRSREKYTGFVLTTNSAKKSLYCSVDHANLLKETADQASTSLSD",44.1
8,"UBP24, ubiquitin-specific protease 24 (protein, UniProt Q9FPS3 1-551, looked up) Ubiquitin carboxyl-terminal hydrolase 24: MSEKKVFVFGSFTEHETRSFFEQKPTKDPQNSKDKCVGSIQFGSLNLAAENSSVNTNGELKKGEADGTVKSAGSQERLDASRPASSDKNNDSDAKLPRKNSLRVPEHVVQNGIIKEISESNKSLNNGVAVKTDPIGLDNLSMSDGESDPVYKASSSKFQALDNEDFSSDSSSGSIQRKKNLKVPTESVPPVKDFTPRGLINAGNLCFLNATLQALLSCSPFVQLLQKIQLQDIPKADSPTLAAFSEFISELDVPSSSSIRNNVTVVEAGRPFRPAMFEGVLRNFTPDVLNNMSGRPRQEDAQEFLSFIMDQMHDELLKLKEQSPKVTASKSSVISSANDDGDEWETVGPKNKSAVTRTQSFVPSELSEIFGGQLKSVVKAKGTKASATVQPYLLLHLDIHPDGVQGIEDALHLFSAQEDLEGYRASVTGKTGVVSASKSIKIQKLSKIMILHLMRFSYGSQGSTKLRKGVKFPLELNLNRSHLVSLSNESLRYELVATITHHGWDPSKGHYTTDARRKNGQWLRFDDASVTPIGTKLVLHDQAYVLFYKQV",2580
